The numbers were not newly measured in publication PMC5818423, which cites them from elsewhere.

pKd: −log10 of the molar value.

The target of one series is Adenosine A1 receptor (UniProt P30542).
Another series concerns the target CD26 (UniProt P27487).

Chain of Adenosine deaminase (P00813 2-363): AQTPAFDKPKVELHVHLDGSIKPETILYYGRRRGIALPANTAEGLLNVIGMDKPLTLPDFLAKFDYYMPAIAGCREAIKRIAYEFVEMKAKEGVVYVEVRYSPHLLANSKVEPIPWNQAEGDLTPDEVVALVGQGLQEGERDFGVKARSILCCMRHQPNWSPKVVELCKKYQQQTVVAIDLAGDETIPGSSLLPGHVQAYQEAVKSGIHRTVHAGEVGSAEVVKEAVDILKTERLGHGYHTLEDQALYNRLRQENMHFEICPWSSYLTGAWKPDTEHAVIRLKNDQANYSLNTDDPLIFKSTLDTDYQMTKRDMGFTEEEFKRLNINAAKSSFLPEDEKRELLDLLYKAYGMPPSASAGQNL
Chain of Adenosine A1 receptor (P30542 whole entry): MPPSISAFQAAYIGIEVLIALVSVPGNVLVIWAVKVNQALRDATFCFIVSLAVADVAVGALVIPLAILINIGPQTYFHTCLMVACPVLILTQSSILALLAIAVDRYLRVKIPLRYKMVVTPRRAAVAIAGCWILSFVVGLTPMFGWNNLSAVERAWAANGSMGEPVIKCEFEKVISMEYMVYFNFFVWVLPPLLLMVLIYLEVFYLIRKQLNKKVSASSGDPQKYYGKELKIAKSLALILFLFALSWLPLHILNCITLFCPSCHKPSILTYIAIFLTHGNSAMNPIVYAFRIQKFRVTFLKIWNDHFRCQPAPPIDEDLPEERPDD
Chain of CD26 (P27487 39-766): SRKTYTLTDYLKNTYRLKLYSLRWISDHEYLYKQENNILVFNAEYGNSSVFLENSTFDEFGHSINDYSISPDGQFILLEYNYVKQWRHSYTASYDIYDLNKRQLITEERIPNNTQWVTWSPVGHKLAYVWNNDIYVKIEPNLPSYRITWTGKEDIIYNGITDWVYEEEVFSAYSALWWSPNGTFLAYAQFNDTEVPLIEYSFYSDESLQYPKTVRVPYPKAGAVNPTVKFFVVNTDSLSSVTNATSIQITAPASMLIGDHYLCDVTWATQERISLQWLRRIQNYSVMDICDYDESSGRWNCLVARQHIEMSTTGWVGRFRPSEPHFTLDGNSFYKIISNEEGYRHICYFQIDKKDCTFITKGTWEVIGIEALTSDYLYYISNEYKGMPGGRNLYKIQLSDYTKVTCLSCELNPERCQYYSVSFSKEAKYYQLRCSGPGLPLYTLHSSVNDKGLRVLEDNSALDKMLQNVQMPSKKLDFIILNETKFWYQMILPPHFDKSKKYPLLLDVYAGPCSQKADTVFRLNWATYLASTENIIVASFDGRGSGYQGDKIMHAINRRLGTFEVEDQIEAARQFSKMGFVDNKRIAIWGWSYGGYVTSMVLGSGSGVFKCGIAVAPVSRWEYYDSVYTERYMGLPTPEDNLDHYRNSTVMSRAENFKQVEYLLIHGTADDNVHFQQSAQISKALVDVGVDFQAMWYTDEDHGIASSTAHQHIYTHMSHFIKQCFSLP

By pKd is commonly meant the Kd on a negative log10 scale, so that one unit is a factor of ten. Consider “Adenosine deaminase (from UniProt P00813)”, for which the pKd in the series with Adenosine A1 receptor was 6.64; in the series with CD26, 7.74.
